Laboratory results: patent US20170174733A1 (Genentech, published 2017)
Read-outs that look alike come from different tables or passages of the source.

Assays:
[1] = target: T1, human VEGF (human, UniProt P15692 27-191); test: cell-based or functional assay
[2] = target: T2, biotinylated VEGF165 (UniProt P15692 27-191); test: competition binding ELISA: blocks biotinylated VEGF165 binding to coated VEGFR1-Fc
T2 construct: range 1-165; also called VEGF1-165

[3] = target: T1, human VEGF; test: cell-based or functional assay; remark: listed apart in the source
[4] = target: T2, biotinylated VEGF165; test: competition binding ELISA: biotinylated VEGF165 premixed with the binder, then on coated VEGFR1-Fc (blocked partner), OD 450 nm
[5] = target: T1, human VEGF; test: cell-based or functional assay; remark: listed apart in the source
[6] = target: T3, VEGF109 (UniProt P15692 214-315, biotinylated where loaded on streptavidin tips); test: BLI (OctetRED384): biotinylated VEGF109 on tips, monomeric variant in solution
T3 construct: range 8-109; also called VEGF8-109; biotinylated VEGF109
T3 sequence: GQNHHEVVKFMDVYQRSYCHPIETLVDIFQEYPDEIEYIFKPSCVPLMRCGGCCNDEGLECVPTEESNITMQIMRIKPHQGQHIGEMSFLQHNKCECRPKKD

[7] = target: T3, VEGF109
[8] = target: T1, human VEGF; test: cell-based or functional assay; remark: listed apart in the source
[9] = target: T3, VEGF109; test: BLI (OctetRED384): biotinylated VEGF109 on tips
[10] = target: T3, VEGF109; test: BLI (OctetRED384): biotinylated VEGF109 on SA sensor tips

T1 sequence (P15692 other isoform, or with tags, fused parts or gaps limits assumed): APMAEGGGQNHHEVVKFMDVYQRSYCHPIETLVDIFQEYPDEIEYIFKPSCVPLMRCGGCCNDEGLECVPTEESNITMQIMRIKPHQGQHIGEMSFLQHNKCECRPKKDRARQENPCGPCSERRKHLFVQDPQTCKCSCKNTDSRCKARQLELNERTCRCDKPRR
T2 sequence (P15692 other isoform, or with tags, fused parts or gaps limits assumed): as above

B1: GST-fused chagasin VEGF variant 4-66-F6 (designed binder)
chain: MSHKVTKAHNGATLTVAVGELVEIQLPSNYFYDGFAWYFEGGTKESPNESMFTVENKYFPNDPGSRLSGAGGTEHFHVTVKAAGTHAVNLTYMAPWLGPSRVLERFTVYLKAN
notes: also called GST-Variant 4; variant 4 as a GST-fusion protein; not shown: N-terminal His6-GST-tag and TEV cleavage site (pET52b backbone)
Inhibitory activity (IC50, nM) against VEGF in cell-based assays [1]: 73 nM
IC50 [2]: 13 nM
IC50, inhibition of VEGF-dependent KDR phosphorylation on KDR-expressing CHO cells [3]: 72 nM
IC50 [4]: 14 nM
Inhibitory activity (IC50, nM) against VEGF in cell-based assays [5]: 28 nM

B2: monomeric chagasin VEGF variant L4X6-7 (designed binder)
chain: MSHKVTKAHNGATLTVAVGELVEIQLPSNYFREGFAWYFEGGTKESPNESMFTVENKYFPHVQWGWGAGGTEHFHVTVKAAGTHAVNLTYMAPWVGPSRELERFTVYLKAN
Kd [6]: 150 nM
fold improvement of IC50 over the parental chagasin variant 4 [3]: 13 fold
Kd [7]: 160 nM
Inhibitory Activity (IC50, nM) against hVEGF in cell-based assays [8]: 65 nM
fold improvement of Kd over the parental variant 4 [9]: 2.5 fold

B3: chagasin VEGF variant 66 (designed binder)
chain: MSHKVTKAHNGATLTVAVGELVEIQLPSNYYYDGFAWYFEGGTKESPNESMFTVENKYFPHYYNLGGRYTGAGGTEHFHVTVKAAGTHAVNLTYMGPWLGPSRVLERFTVYLKAN
notes: also called clone 66; not shown: C-terminal His6-tag and Avi-tag of the ExiProgen small-scale expression
binding result [10]: binds
